The chains are these.
B1: C98C7 (antibody, V domains shown)
VH: EVQLVESGGGLVQPGGSLRLSCAASGITVSSNYMSWVRQAPGKGLEWVSVIYSGGSTFYADSVKGRFTISRDNSKNTLYLQMSSLRAEDTAVYYCARDLVVFGMDVWGQGTTVTVSS
VL: EIVLTQSPGTLSLSPGETATLSCRASQSVGSSYLTWYQQKPGQAPRLLIYGASSRATGIPDRFSGSGSGTDFTLTISRLEPEDFAVYYCQHYGSSPTFGQGTKVEIK
B2: C53E1 (antibody, V domains shown)
VH: EVQLVQSGAEVKKPGESLKISCKGSGYSFTSYWIGWVRQMPGKGLEWMGIIYPGDSDTTYSPSFQGQVTISADKSISTAYLQWSSLKASDTAMYYCARRSNSPFPLIDYWGQGTLVTVSS
VL: not shown
B3: C18C11 (antibody, V domains shown)
VH: EVQLVESGGGVVQPGRSLRLSCAASGFTFSSYAMHWVRQAPGKGLEWVAVISYDGSNKYYADSVKGRFTISRDNSKNTLYLQMNSLRAEDTAVYYCASLITMVRGVFDYWGQGTLVTVSS
VL: not shown
B4: C53F10 (antibody, V domains shown)
VH: EVQLVQSGAEVKKPGESLRISCKGAGYSFTSYWITWVRQMPGKGLEWMGRIDPSDSYTNYSPSFEGHVTISADKSISTAYLQWSSLKASDTAMYYCARLYCGGDCPPGYWGQGTLVTVSS
VL: not shown
B5: C41P1 (antibody, V domains shown)
VH: QVQLVESGGGVVQPGRSLRLSCAASGFTFSSYAMHWVRQAPGKGLEWVAVISYDGRNKYYADSVKGRFTISRENSKNTLYLQMNSLRAEDTAVYYCARDLGVVVPAAIGWVNPRDDYYYYYGMDVWGQGTTVTVSS
VL: SYELTQPPSVSVSPGQTARITCSGDALPKQYAYWYQQKPGQAPVLVIYKDSERPSGIPERFSGSSSGTTVTLTISGVQAEDEADYYCQSADSSGTYRVFGTGTKVTVL
B6: G32Q3 (antibody, V domains shown)
VH: QVQLVQSGTEVKKPGASVKVSCKASGYTFPNYGITWVRQAPGQGLEWVGWISAYNGNTNYAQKLQGRVTMTTDTSTNTAYMELRSLRSDDTAVYYCARSIAVAGTTAEFDYWGQGTLVTVSS
VL: not shown
B7: C18C10 (antibody, V domains shown)
VH: EVQLVESGGGLVQPGGSLRLSCAASGFTFSNYAISWVRQAPGKGLEWVSLISGSGGSTYYADSVKGRFTISRDNSKNTLYLQMNSLRAEDTAVYYCATTNIPPFSGYYLDAFDIWGQGTMVTVSS
VL: not shown
B8: C30C2 (antibody, V domains shown)
VH: EVQLVESGGGLVQPGGSLRLSCAASGFTVSSNYMSWVRQAPGKGLEWVSVIYSGGSTYYADSVKGRFTISRDNSKNTLYLQVNSLRAEDTAVYYCARDGRDNAFDIWGQGTMVTVSS
VL: not shown
B9: C63D3 (antibody, V domains shown)
VH: EVQLVESGGGLVQPGGSLRLSCAASGFTFSSYDMHWVRQATGKGLEWVSVIGTAGDTYYPGSVKGRFTISRENAKNSLYLQMNSLRAGDTAVYYCARGHSTGQGYSYYYYMDVWGKGTTVTVSS
VL: not shown
B10: C102A4 (antibody, V domains shown)
VH: QVQLVQSGAEVKKPGSSVKVSCKASGGTFSSYAISWVRQAPGQGLEWMGGIIPIFGTANYAQKFQGRVTITADESTSTAYMELSSLRSEDTAVYYCATQPSYGDLDLFDYWGQGTLVTVSS
VL: not shown
B11: C53F11 (antibody, V domains shown)
VH: QVQLQESGPGLVKPSETLSLTCTVSGYSISSGYYWGWIRQPPGKGLEWIGSIYHSESTYYNPSLKSRVTISVDTSKSQFSLKLSSVTAADTAVYYCGRSLWDSIWEDHIGAVDYWGQGTLVTVSS
VL: QSALTQPASVSGSPGQSITISCTGTSSDVGNYNLVSWYQQHPGKAPKLMIYEGSKRPSGVSNRFSGSKSGNTASLTISGLQAEDEADYYCCSYAGSSILWVFGGGTKLTVL
B12: G32B1 (antibody, V domains shown)
VH: QVQLVESGGGVVQPGRSLRLSCAASGFTFSSYGMHWVRQAPGKGLEWVAVISYDGSNKYYADSVKGRFTISRDNSKNTLYLQMNSLRAEDTAVYYCAKVVAPYYYYYYGMDVWGQGTTVTVSS
VL: QSALTQPASVSGSPGQSITISCTGTSSDVGGYNYVSWYQQHPGKAPKLMIYEVSNRPSGVSNRFSGSKSGNTASLTISGLQAEDEADYYCSSYTSSSTSWVFGGGTKLTVL
B13: C12C10 (antibody, V domains shown)
VH: not shown
VL: QSALTQPASVSGSPGQSITISCTGTSSDVGGYNYVSWYQQHPGKAPKLMIYDVSYRPSGVSNRFSGSKSGNTASLTISGLQAEDEADYYCSSYTSSSILGVFGGGTKLTVL
B14: G32C4 (antibody, V domains shown)
VH: EVQLVQSGAEVKKPGESLKISCKGSGYSFISYWIGWVRQMPGKGLEWMGIIYPGDSDTRYSPSFQGQVTISADKSISTAYLQWSSLKASDTAMYYCARMTQGYGTIRPLYYFDYWGQGTLVTVSS
VL: not shown
B15: C89A10 (antibody, V domains shown)
VH: EVQLLESGGGLVQPGGSLRLSCAASGFIFSSYAMSWVRQAPGKGLEWVSVISGSGDITYYADSVKGRFTISRDNSKNTLYLQMNSLRAEDTAVYYCAKDIDEPTAMVESWGYWGQGTLVTVSS
VL: QSALTQPRSVSGSPGQSVTISCTGTSSDVGGYNYVSWYQQHPGKAPKLMIYDVSKRPSGVPDRFSGSKSGNTASLTISGLQAEDEADYYCCSYAGSWVFGGGTKLTVL
B16: C15D4 (antibody, V domains shown)
VH: QVQLQQWGAGLLKPSETLSRTCAVYGGSFSGYYWTWIRQPPGMALEWIGDINHGGVTNYNPSLKSRVTISVDTSKNQFSLRLTSVTAADTAVYYCARRLLGDPRPASSSLSLRRVSYMDVWDKGTTVTVSS
VL: DIQMTQSPSSMSASVGDRVTITCRASQSISNYLNWYQQKPGRAPKLLIYGASSLQSGVPSRFGGSGSGTEFTLTITALQPEDSATYYCQQIHGAPPITFGQGTRLEIK
B17: G32B6 (antibody, V domains shown)
VH: QVQLVQSGAEVKKPGASVKVSCKASGYTFTGYYMYWVRQAPGQGLEWMGWINPNSGGTNYAQKFQGRVTMTRDRSISTAYMELSRLRSDDTAMYYCARDRVGDILTGYYGYWGQGTLVTVSS
VL: QSALTQPPSASGSPGQSVTISCTGTSSDVDSYNYVSWYQQHPGKAPKLMIYEVSKRPSGVPDRFSGSKSGNTASLTVSGLQAEDEADYYCSSYAGSNNWVFGGGTKLTVL
B18: G32A8 (antibody, V domains shown)
VH: QVQLVQSGAEVKKPGASVKVSCKASGYTFTGYYMHWVRQAPGQGLEWMGWINPNSGATNYAQKFQGRVTMTRDTSINTAYMELNRLRSDDTAVYYCARDIVFSRLGASFDYWGQGTLVTVSS
VL: QSALTQPPSASGSPGQSVTISCTGTSSDVGGYNYVSWYQQHPGKAPKLMIYEVTKRPSGVPDRFSGSKSGNTASLTVSGLQAEDEADYYCSSYAGSNYNVFGGGTKLTVL
B19: C12E7 (antibody, V domains shown)
VH: QVQLVESGGGVVQPGRSLRLSCAASGFTFSSYGMHWVRQAPGKGLEWVAVISYDGSNKYYADSVKGRFTISRDNSKNTLYLQMNSLRAEDTAVYYCAKSGYSYAYPMVYFDYWGQGTLVTVSS
VL: SYELTQPPSVSVAPGKTARITCGGNNIGSKSVHWYQQKPGQAPVLVVYDDSDRPSGIPERFSGSNSGNTATLTISRVEAGDEADYYCQVWDSSSDHPGVFGGGTKLTVL
B20: C53F9 (antibody, V domains shown)
VH: QVQLVQSGAEVKKPGASVKVSCKASGYTFTSYGISWVRQAPGQGLEWMGWISAYNGNTNYAQKLQGRVTMTTDTSTSTAYMELRSLRSDDTAVYYCARVGTYYYDSSAYYFDYWGQGTLVTVSS
VL: not shown
B21: C63C8 (antibody, V domains shown)
VH: EVQLVESGGGLVQPGGSLRLSCAASGFTFSSYWMSWVRQAPGKGLEWVANIKQDGSEKYYVDSVKGRFTMSRDNAKNSLYLQMNSLRAEDTAVYYCASLRWLQADFEYWGQGTLVTVSS
VL: NFMLTQPHSVSESPGKTVTISCTRSSGSIASNYVQWYQQRPGSSPTTVIYEDNQRPSGVPDRFSGSIDSSSNSASLTISGLKTEDEADYYCQSYDSTNHVFGTGTKVTVL
B22: C63C7 (antibody, V domains shown)
VH: not shown
VL: QSVLTQPPSVSGAPGQRATISCTGSSSNIGAGYDVHWYQQLPGTSPKLLIYGNSNRPSGVPDRFSGSKSGTSASLAITGLQAEDEAEYYCQSYDSSLSGSVVFGGGTKLTVL
B23: C15D10 (antibody, V domains shown)
VH: QVQLQQSGPGLVKPSQTLSLTCAISGDSVSSNSAAWNWIRQSPSRGLEWLGRTYYRSKWYNDYAVSVKSRITINPDTSKNQFSLQLNSVTPEDTAVYYCAREQQLVSHDYYYYYGMDVWGQGTTVTVSS
VL: QSALTQPASVSGSPGQSITISCTGTSSDVGGYNYVSWYQQHPGKAPKLMIYDVSNRPSGVSNRFSGSKSGNTASLTISGLQAEDEADYYCSSYTSSSSLFGTGTKVTVL
B24: G32Q4 (antibody, V domains shown)
VH: QVQLVESGGGVVQPGRSLRLSCAASGFTFSRYAMQWVRQAPGKGLEWVAVISYDGNNRYYADSVKGRFTISRDNSKNTLYLQMNSLRAEDTAVYYCARGPPGYYDSSGYYQTPEYFQHWGQGTLVTVSS
VL: QSVLTQPPSVSGAPGQRVTISCTGSSSNIGVGYDVHWYQQFPGTVPKLLIYGNSNRPSGVPDRFSGSKSGTSASLAITGLQAEDEADYYCQSYDSSLSGVVFGGGTKLTVL
B25: C12D5 (antibody, V domains shown)
VH: QVQLVESGGGVVQPGRSLRLSCAASGFTFSSYVMHWVRQAPGKGLEWVAVISYDGSNKYYADSVKGRFTISRDNSKNTLYLQMNSLRAEDTAVYYCARDPGARRDGYVSLGGSYDWFDPWGQGTLVTVSS
VL: QSVLTQPPSVSGAPGQRVTISCTGTSSNIGAGYDVHWYQQLPGTAPKLLIYGNSNRPSGVPDRFSGSKSGTSASLAITGLQAEDEADYYCQSYDSSLSGWVFGGGTKLTVL

In this assay the target is SARS-CoV-2 S ectodomain trimer, prefusion-stabilized, 2P variant (Wrapp et al., 2020) (SARS-CoV-2, Wuhan-Hu-1, UniProt P0DTC2, stabilised).
With B1, the binding result is on record as “binds”. As for B2, the entry is “binds”; as for B3, “binds”. Under B4 stands “binds”; under B5, “binds”.

In the case of B6, the binding result is given as “binds”. Consider B7, for which the binding result is listed as “binds”. With B8, the binding result was “binds”.

For B9, the binding result was “binds”.

B10: the binding result is listed as “binds”.

Take B11: the binding result was “binds”.

Take B12: the binding result is given as “binds”. As for B13, the entry is “binds”.

For B14, the binding result is “binds”. On to B15, for which the binding result is “binds”. B16: the binding result was “binds”. As for B17, the binding result is “binds”. As to B18, the binding result is “binds”. For B19, the binding result is reported as “binds”. For the molecule B20, the binding result is “binds”. As for B21, the entry is “binds”. As for B22, the entry is “binds”; as for B23, “binds”; as for B24, “binds”. Under B25 stands “binds”.

The values are drawn from publication PMC8299219 (Cell, 2021).
